Reference: patent publication US20030170203A1 (Human Genome Sciences, published 2003)

Experiments:
Experiment in all cases: flow cytometry on transiently transfected cells
[1] = biological target: T1, BCMA on transiently transfected cells (UniProt Q02223 1-184, limits assumed)
T1 construct: whole, on cells
T1 sequence (looked up): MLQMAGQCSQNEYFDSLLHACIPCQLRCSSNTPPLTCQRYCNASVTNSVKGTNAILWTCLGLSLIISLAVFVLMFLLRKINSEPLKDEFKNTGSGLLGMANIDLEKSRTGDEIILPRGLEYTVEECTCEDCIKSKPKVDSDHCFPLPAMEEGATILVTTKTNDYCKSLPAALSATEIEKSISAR
Description: (§1) One million cells, in 0.1 ml of FACS buffer (PBS, 0.1% BSA, 0.1% NaN₃), were incubated with 0.1-1 microgram of protein or antibody at RT for 15 min. The cells were washed with 3 ml of FACS buffer, reacted with biotinylated primary antibody, and stained with PE-conjugated secondary antibody at RT for 15 min. Cells were then washed again, resuspended in 0.5 microgram/ml of propidium iodide, and live cells were gated and analyzed on a FACScan using the CellQuest software (BD Biosciences).

[2] = biological target: T2, TNFR2 on transiently transfected cells (UniProt P20333 23-461, limits assumed)
T2 construct: whole, on cells
T2 sequence (looked up): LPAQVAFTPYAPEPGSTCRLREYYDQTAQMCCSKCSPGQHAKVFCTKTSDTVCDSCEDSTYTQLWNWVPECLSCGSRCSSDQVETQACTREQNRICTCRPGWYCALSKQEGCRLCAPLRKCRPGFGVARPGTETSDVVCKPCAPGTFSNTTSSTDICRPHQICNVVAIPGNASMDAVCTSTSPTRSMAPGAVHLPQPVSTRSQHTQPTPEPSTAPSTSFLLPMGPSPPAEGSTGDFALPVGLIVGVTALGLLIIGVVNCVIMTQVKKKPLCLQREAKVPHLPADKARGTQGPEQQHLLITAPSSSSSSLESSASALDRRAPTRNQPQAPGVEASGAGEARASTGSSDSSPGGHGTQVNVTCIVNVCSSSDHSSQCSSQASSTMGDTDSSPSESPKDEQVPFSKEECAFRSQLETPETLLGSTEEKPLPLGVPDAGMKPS
Description: as §1

[3] = biological target: T3, DR6 on transiently transfected cells (UniProt O75509 42-655, limits assumed)
T3 construct: whole, on cells
T3 sequence (looked up): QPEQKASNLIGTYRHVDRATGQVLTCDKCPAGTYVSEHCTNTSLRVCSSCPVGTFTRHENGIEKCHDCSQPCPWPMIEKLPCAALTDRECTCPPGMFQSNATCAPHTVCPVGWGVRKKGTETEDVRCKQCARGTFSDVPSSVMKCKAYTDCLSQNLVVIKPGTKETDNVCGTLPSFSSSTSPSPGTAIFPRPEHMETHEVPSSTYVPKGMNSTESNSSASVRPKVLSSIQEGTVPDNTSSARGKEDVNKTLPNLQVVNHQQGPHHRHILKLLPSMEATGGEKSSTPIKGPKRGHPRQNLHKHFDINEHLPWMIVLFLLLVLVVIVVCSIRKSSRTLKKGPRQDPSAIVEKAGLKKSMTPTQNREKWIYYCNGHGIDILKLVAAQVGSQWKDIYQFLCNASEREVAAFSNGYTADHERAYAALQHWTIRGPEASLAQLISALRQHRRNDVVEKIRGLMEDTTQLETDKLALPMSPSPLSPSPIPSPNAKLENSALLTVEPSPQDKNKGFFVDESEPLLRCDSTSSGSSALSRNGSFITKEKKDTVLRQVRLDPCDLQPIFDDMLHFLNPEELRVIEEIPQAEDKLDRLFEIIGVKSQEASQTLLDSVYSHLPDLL
Description: as §1

[4] = biological target: T4, HveA on transiently transfected cells (UniProt Q92956 39-283, limits assumed)
T4 construct: whole, on cells
T4 sequence (looked up): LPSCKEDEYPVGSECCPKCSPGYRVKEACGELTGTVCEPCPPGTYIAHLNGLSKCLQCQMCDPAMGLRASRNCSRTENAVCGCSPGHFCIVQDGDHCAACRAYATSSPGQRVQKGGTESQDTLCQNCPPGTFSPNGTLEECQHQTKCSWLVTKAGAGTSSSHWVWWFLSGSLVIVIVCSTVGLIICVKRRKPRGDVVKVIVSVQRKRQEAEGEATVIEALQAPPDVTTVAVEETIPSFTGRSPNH
Description: as §1

[5] = biological target: T5, DR5 on transiently transfected cells (UniProt O14763 56-440, limits assumed)
T5 construct: whole, on cells
Description: as §1

[6] = biological target: T6, AITR on transiently transfected cells (UniProt Q9Y5U5 26-241, limits assumed)
T6 construct: whole, on cells
T6 sequence (looked up): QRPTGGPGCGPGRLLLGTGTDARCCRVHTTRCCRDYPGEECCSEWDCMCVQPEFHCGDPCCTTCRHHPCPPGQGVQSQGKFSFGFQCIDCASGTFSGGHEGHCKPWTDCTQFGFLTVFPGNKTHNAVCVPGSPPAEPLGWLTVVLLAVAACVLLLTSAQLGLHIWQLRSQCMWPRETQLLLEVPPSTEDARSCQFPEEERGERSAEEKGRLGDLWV
Description: as §1

[7] = biological target: T7, DcR1 on transiently transfected cells (UniProt O14798 26-236, limits assumed)
T7 construct: whole, on cells
T7 sequence (looked up): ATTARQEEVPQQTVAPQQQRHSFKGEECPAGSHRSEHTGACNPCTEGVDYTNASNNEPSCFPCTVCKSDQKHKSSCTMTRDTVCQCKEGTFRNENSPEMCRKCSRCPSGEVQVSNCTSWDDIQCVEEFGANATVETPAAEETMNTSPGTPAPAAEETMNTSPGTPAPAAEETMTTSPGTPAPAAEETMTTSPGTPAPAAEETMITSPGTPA
Description: as §1

Measured: binding result

B1: FLAG-tagged soluble form of TNF-gamma-beta (aa 72-251) (ligand, human, UniProt O95150 72-251, looked up)
chain: LKGQEFAPSHQQVYAPLRADGDKPRAHLTVVRQTPTQHFKNQFPALHWEHELGLAFTKNRMNYTNKFLLIPESGDYFIYSQVTFRGMTSECSEIRQAGRPNKPDSITVVITKVTDSYPEPTQLLMGTKSVCEVGSNWFQPIYLGAMFSLQEGDKLMVNVSDISLVDYTKEDKTFFGAFLL
notes: also called FLAG-TL1β; FLAG-TNF-gamma-beta; not shown: FLAG tag of vector pFLAGCMV1
no binding: [1] | [2] | [3] | [4] | [5] | [6] | [7]
